Usually stoichiometry N stands for a count of units in the complex or per binding partner.

This note sets out measurements from article PMC2783589.

The target of the assay is revised CpaD from Aspergillus flavus NRRL3357 (full length, with the 43 N-terminal residues added) (Aspergillus flavus NRRL3357). In words: SEC.

With “revised CpaD from Aspergillus flavus NRRL3357 (full length, with the 43 N-terminal residues added) (enzyme)”, the stoichiometry N is 2.
